Consider ten molecules from patent EP4631972A1, “SITE-SPECIFIC COUPLED PEGYLATED INTERLEUKIN-2 MUTANT WITH RECEPTOR AFFINITY PREFERENCE AND USE THEREOF” (priority 2022, dated 2024).

Where two headings read alike, the source gives them in different places. Side chains are listed from the residue outwards. maleimide = maleimide group on PEG that conjugates to a cysteine thiol

Data set [1] is described as follows: Effects on body weight and physiological characteristics of mice. The settings on record: 1 mg/kg s.c. once every three days, three times.
Experimental: SPF grade Balb/c mice were purchased, with 3 mice in each group. Administration was started on the day of grouping. The test substance or PBS (negative control group) was administered subcutaneously at a dose of 1 mg/kg, once every three days, for a total of three times. The mice were weighed before each administration and three days after the third administration .
For a further data set, the system named is Treg cells. The data set is described as follows: P-STAT5 activation in Treg cells of human PBMCs (flow cytometry). In kind it is cell-based. As to conditions: P-STAT5 MFI in CD3+/CD4+/CD25+ cells of human PBMCs, 30 min stimulation. As to the method:
In the example, the activation effect of each mutant prepared in Example 6 on P-STAT5 in different cell subsets (Tregs, CD8+T cells, NK cells) from human PBMCs (Miaoshun Biotechnology) was detected.
Human PBMC cells were thawed and resuspended to 1.5×10^6 cells/ml in RPMI1640 medium containing 10% FBS. 100 µl was added to each well of a V-bottom 96-well culture plate. Each IL-2 mutant prepared in Example 6 was diluted 10-fold in series: 1000 nM was used as the working concentration for the first well, and then 100 µl/well of each serial dilution was added to each cultured cell, stimulated at 37°C for 30 min, and the reaction was terminated on ice. The cells were treated with a commercial fixative and permeabilization agent (BD biosciences 558049 & 558050), and stained with antibodies against CD3, CD4, CD25, and CD8 according to conventional methods. P-STAT5 antibody staining was also performed (Table 7) to detect the mean fluorescence intensity (MFI) of P-STAT5 in CD3+/CD4+/CD25+ (Treg cells) and CD8+/CD3+ cells ([…]) by flow cytometry.
(In general: Flow cytometry measures light scatter and fluorescence of single cells or particles in a stream.)

Data set [2] is described as follows: Pharmacokinetic study in mice, single administration, plasma concentration by ELISA. The settings on record: 1 mg/kg s.c. single administration.
Experimental: Balb/c mice were purchased, with 4 mice in each group. Each IL-2 mutant to be tested was administered subcutaneously once at a dose of 1 mg/kg. Blood was collected from the orbit at different time points after administration, and the plasma was separated and the plasma drug concentration was detected by ELISA. The main pharmacokinetic parameters were calculated, and C-T curve was plotted.
Data set [3] deals with T1, IL-2Rαβγ triple receptor (UniProt P01589 22-272; P14784 27-551; P31785 23-369).
T1 sequence (looked up) 1: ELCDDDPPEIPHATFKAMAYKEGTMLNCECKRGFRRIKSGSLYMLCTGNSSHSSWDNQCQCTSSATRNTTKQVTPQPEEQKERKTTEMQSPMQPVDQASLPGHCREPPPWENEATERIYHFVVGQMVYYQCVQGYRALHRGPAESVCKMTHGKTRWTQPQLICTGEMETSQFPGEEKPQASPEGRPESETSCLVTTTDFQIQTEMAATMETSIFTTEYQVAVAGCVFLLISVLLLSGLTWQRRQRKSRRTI
T1 sequence (looked up) 2: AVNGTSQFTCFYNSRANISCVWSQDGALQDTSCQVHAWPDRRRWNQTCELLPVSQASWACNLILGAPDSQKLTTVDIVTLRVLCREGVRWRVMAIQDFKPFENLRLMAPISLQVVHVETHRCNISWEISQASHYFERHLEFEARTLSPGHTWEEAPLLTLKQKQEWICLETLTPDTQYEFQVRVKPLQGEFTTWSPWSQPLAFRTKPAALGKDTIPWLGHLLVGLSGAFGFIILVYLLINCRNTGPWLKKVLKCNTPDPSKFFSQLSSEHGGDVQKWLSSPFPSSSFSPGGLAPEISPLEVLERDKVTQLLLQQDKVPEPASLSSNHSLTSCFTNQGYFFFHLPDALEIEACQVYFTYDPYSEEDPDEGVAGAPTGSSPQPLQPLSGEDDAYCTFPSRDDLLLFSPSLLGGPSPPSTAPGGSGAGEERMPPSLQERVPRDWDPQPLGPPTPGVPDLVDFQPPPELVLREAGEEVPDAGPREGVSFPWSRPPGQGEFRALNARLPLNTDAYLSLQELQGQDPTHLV
T1 sequence (looked up) 3: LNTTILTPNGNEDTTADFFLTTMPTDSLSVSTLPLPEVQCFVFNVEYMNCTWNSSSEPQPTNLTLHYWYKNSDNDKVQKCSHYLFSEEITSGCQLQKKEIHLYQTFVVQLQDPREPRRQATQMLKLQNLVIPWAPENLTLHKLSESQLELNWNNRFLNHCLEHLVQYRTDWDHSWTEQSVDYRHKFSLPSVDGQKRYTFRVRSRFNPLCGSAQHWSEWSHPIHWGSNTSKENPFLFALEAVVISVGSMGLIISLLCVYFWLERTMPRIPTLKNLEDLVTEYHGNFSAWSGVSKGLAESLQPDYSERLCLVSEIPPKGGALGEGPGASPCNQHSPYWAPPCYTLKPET
The data set is described as follows: cell-based or functional assay.

For data set [4], the target named is T1, IL-2Rαβγ triple receptor. The data set is described as follows: cell-based or functional assay. This is another data set of the same source.
Data set [5] has as its target T1, IL-2Rαβγ triple receptor. The data set is described as follows: cell-based or functional assay. This is another data set of the same source.

Regarding “80K-1PEG-IL2-N88R-D109C: IL-2 mutant N88R, D109C, conjugation site 109, PEG molecular weight 80kD”, in data set [1], the “toxic side effects on mice” value is “relatively obvious toxic side effects” and the “visual observation of the mice” value is “listless, had poor motility”. In addition, the “body weight compared with negative control” value in data set [1] (three days after the third dose) was “significantly lower than that of the negative control”.

For the molecule “40K-1PEG-IL2-N88R-N77C: IL2-N88R-N77C with 40 kDa PEG conjugated to the cysteine at position 77”, in the data set on Treg cells, the response was half-maximal at 38 nM (EC50). Further, in data set [2], the AUC inf is 307.71336 ± 53.89144 µg·h/mL, the AUClast stood at 306.70767 ± 53.98797 µg·h/mL, the CL was 3.32±0.5 and the highest concentration (Cmax) amounted to 6581.76 ± 1168.04 ng/mL. Besides, in data set [2], the MRT amounted to 31.57 ± 1.16 h, the T1/2 is 11.33 ± 0.97 h and the Tmax fell in the range of 8 to 24 h.

In the data set with IL-2Rαβγ triple receptor [3], “rh IL-2 (from UniProt P60568 21-153) (ligand)” registered an Activation of IL-2αβγ receptor EC50 (STAT5 luciferase reporter gene assay) of 0.00848 nM, an Activation of IL-2αβγ triple receptor EC50 (STAT5 luciferase reporter gene assay) of 0.00411 nM and an EC50 for activation of the IL-2αβγ triple receptor (STAT5 luciferase reporter gene assay) of 0.00543 nM.

B1: 20K-1PEG-IL2-N88R-N77C (ligand)
chain: APTSSSTKKTQLQLEHLLLDLQMILNGINNYKNPKLTRMLTFKFYMPKKATELKHLQCLEEELKPLEEVLNLAQSKC([maleimide-PEG 20 kDa])FHLRPRDLISRINVIVLELKGSETTFMCEYADETATIVEFLNRWITFSQSIISTLT
modifications: not fully specified
Take B1: the “EC50 for activation of the IL-2αβγ triple receptor (STAT5 luciferase reporter gene assay)” value with IL-2Rαβγ triple receptor [4] is 0.0705 nM.

B2: 20K-1PEG-IL2-N88R-N77C: IL-2 mutant N88R, N77C, conjugation site 77, PEG molecular weight 20kD (conjugate)
chain: APTSSSTKKTQLQLEHLLLDLQMILNGINNYKNPKLTRMLTFKFYMPKKATELKHLQCLEEELKPLEEVLNLAQSKC(PEG 20 kDa)FHLRPRDLISRINVIVLELKGSETTFMCEYADETATIVEFLNRWITFSQSIISTLT
Consider B2, for which, in the data set on Treg cells, the EC50 is 6.14 nM. Besides, in data set [2], the AUC inf came to 22.88236 ± 3.52254 µg·h/mL, the AUClast is 21.76228 ± 3.58639 µg·h/mL, the CL is given as 44.4±6.99 and the Cmax worked out at 1276.71 ± 273.3 ng/mL. Moreover, in data set [2], the MRT was 11.68 ± 0.08 h, the T1/2 was 7.62 ± 0.57 h and the Tmax was 4 to 8 h.

B3: 80k-1PEG-IL2-N88R-N33C (ligand)
chain: APTSSSTKKTQLQLEHLLLDLQMILNGINNYKC(PEG 80 kDa)PKLTRMLTFKFYMPKKATELKHLQCLEEELKPLEEVLNLAQSKNFHLRPRDLISRINVIVLELKGSETTFMCEYADETATIVEFLNRWITFSQSIISTLT
In the case of B3, in the data set with IL-2Rαβγ triple receptor [5], the “EC50 for activation of the IL-2αβγ triple receptor (STAT5 luciferase reporter gene assay, 293EC18/αβγ/JAK3/STAT5 cells)” value worked out at 0.00386 nM.

B4: 80k-1PEG-IL2-N88R-S75C (ligand)
chain: APTSSSTKKTQLQLEHLLLDLQMILNGINNYKNPKLTRMLTFKFYMPKKATELKHLQCLEEELKPLEEVLNLAQC(PEG 80 kDa)KNFHLRPRDLISRINVIVLELKGSETTFMCEYADETATIVEFLNRWITFSQSIISTLT
As to B4, the “EC50 for activation of the IL-2αβγ triple receptor (STAT5 luciferase reporter gene assay, 293EC18/αβγ/JAK3/STAT5 cells)” value with IL-2Rαβγ triple receptor [5] worked out at 1.26 nM.

B5: 80K-1PEG-IL2-N88R-N77C (ligand)
chain: APTSSSTKKTQLQLEHLLLDLQMILNGINNYKNPKLTRMLTFKFYMPKKATELKHLQCLEEELKPLEEVLNLAQSKC(PEG 80 kDa)FHLRPRDLISRINVIVLELKGSETTFMCEYADETATIVEFLNRWITFSQSIISTLT
B5: the “EC50 for activation of the IL-2αβγ triple receptor (STAT5 luciferase reporter gene assay, 293EC18/αβγ/JAK3/STAT5 cells)” value with IL-2Rαβγ triple receptor [5] was 0.184 nM. Besides, the “EC50 for activation of the IL-2αβγ triple receptor (STAT5 luciferase reporter gene assay)” value with IL-2Rαβγ triple receptor [4] turned out to be 0.246 nM.

B6: 20K-1PEG-IL2-N88R-D109C (ligand)
chain: APTSSSTKKTQLQLEHLLLDLQMILNGINNYKNPKLTRMLTFKFYMPKKATELKHLQCLEEELKPLEEVLNLAQSKNFHLRPRDLISXINVIVLELKGSETTFMCEYAXETATIVEFLNRWITFSQSIISTLT
modifications: not fully specified; one 20 kD PEG-maleimide conjugated to Cys 109
As to B6, the “EC50 for activation of the IL-2αβγ triple receptor (STAT5 luciferase reporter gene assay)” value with IL-2Rαβγ triple receptor [4] worked out at 0.0786 nM.

B7: 80K-1PEG-IL2-N88R-D109C (ligand)
chain: B6 chain
modifications: one 80 kD PEG-maleimide conjugated to Cys 109
On to B7, for which the “EC50 for activation of the IL-2αβγ triple receptor (STAT5 luciferase reporter gene assay)” value with IL-2Rαβγ triple receptor [4] was determined as 0.407 nM.

The EC50 is the concentration giving half of the maximal effect. The Cmax is the peak of the concentration-time curve. Usually MRT stands for a mean duration of stay, worked out from the concentration-time curve. As a reminder, the Tmax is the time at which the peak concentration occurs.
